Assay results from PMC10285643 (iScience, 2023).

Biological target: extracellular domain of Toll-like receptor 4 (TLR4) (UniProt O00206 24-631)
Test: ITC

extracellular domain of Toll-like receptor 4 (TLR4), sequence (O00206 24-631): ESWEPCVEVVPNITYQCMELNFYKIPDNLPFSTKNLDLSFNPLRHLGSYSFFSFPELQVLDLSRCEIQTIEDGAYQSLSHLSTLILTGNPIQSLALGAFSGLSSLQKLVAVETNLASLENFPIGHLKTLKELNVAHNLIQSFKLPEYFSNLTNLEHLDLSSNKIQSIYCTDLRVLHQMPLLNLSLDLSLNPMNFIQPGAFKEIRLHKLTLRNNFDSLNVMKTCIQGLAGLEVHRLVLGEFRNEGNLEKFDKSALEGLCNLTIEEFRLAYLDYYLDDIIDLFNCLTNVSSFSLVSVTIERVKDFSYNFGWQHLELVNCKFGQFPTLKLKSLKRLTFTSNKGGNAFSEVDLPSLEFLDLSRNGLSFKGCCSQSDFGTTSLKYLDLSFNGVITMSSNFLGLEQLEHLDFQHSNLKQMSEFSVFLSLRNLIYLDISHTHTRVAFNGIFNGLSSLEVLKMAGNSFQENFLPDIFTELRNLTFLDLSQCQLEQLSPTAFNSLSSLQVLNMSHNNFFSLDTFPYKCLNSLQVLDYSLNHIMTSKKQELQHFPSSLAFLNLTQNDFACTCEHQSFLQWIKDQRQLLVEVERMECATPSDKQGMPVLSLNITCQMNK

Kd: 3.72 ± 1.98 µM
B1: Cold-inducible RNA binding protein (CIRP) (natural protein, UniProt Q14011 1-172, looked up)
chain: MASDEGKLFVGGLSFDTNEQSLEQVFSKYGQISEVVVVKDRETQRSRGFGFVTFENIDDAKDAMMAMNGKSVDGRQIRVDQAGKSSDNRSRGYRGGSAGGRGFFRGGRGRGRGFSRGGGDRGYGGNRFESRSGGYGGSRDYYSSRSQSGGYSDRSSGGSYRDSYDSYATHNE
modifications: 15N-labeled (in the NMR titration)
